T1: Biotin-huCGRPaSA (human, not fully specified; biotin (position not given))
T1 construct: exact construct ('aSA') not explained; also called Biotin CGRPaSA; full-length (1-37) CGRP
T1 peptide: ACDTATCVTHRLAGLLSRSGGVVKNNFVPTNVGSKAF


Target: T1, Biotin-huCGRPaSA
Test: ELISA, supernatant; relative to chimeric C245
Procedure: Biotin CGRPaSA was diluted with PBS (Hyclone) to 1.0 μg/mL, and the dilution was added to a microplate at 100 μL/well. The plate was let stand in an incubator at 37° C. and coated for 90 min and then washed, and 2% BSA was added to the plate at 200 μL/well. The plate was incubated in an incubator at 37° C. for 90 min and then washed. The humanized antibodies in Table 8 and the reference antibody (chimeric antibody C245) were diluted to 1000 ng/mL with a diluent (2% BSA) with a dilution factor of not more than 10. Then, the chimeric antibodies and the reference antibody were serially 2.5-fold diluted on a sample dilution plate. All the chimeric antibody solutions and the reference antibody solution were added into plates at 100 μL/well, and the plates were incubated in a thermostat incubator at 37° C. for 60 min and washed. An HRP-conjugated goat anti-human antibody IgG (manufacturer: Sigma, Cat. No. A0170; Fc specificity) was diluted 5000-fold with 2% BSA and added into the plates at 100 μL/well, and the plates were incubated in the thermostat incubator at 37° C. for 60 min and washed. Chromogenic reagent TMB was carefully added at 100 μL/well to avoid bubbles, and the system was incubated at 37° C. for 15 min away from light for chromogenic reaction. Finally, a 2 M hydrochloric acid solution was added at 100 μL/well to stop the reaction while avoiding bubbles, and the plates were read on a microplate reader within 10 min (wavelength: 450/620 nm).

Binder | Relative binding activity, % [%]
hu219 (antibody, V domains shown, 3H10 HC-2/3E5 LC-1) VH: QVQLVQSGAEVKKPGASVKVSCKASGYTFTDYNMHWVRQAPGQGLEWMGYIYPYNGHTVYNQKFRNRVTLTVDTSSSTAYMELRSLRSDDTAVYYCAREGLGGYWGQGTLVTVSS VL: DIVLTQSPDSLAVSLGERATINCKASQNIDYDGYTYLNWYQQKPGQPPKVLIYSIFNLESGVPDRFSGSGSGTDFTLTISSLQAEDVAVYYCQQSNEVPYTFGQGTKLEIK | 78
hu206 (antibody, V domains shown, 3H10 HC-1/3E5 LC-1) VH: QVQLVQSGAEVKKPGASVKVSCKASGYTFTDYNMHWVRQAPGQGLEWMGYIYPYNGHTVYNQKFRNRVTMTVDTSSSTAYMELRSLRSDDTAVYYCAKEGLGGYWGQGTLVTVSS VL: DIVLTQSPDSLAVSLGERATINCKASQNIDYDGYTYLNWYQQKPGQPPKVLIYSIFNLESGVPDRFSGSGSGTDFTLTISSLQAEDVAVYYCQQSNEVPYTFGQGTKLEIK | 70
hu24 (antibody, V domains shown, 1B2 HC-2/3E5 LC-1) VH: QVQLVQSGAEVKKPGASVKVSCKASGYTFTDYNMHWVRQAPGQRLEWMGYIFPYNGVAVYNRKFRSRVTLTVDTSSSTAYMELSSLRSEDTAVYYCAREGLGGYWGQGTLVTVSS VL: DIVLTQSPDSLAVSLGERATINCKASQNIDYDGYTYLNWYQQKPGQPPKVLIYSIFNLESGVPDRFSGSGSGTDFTLTISSLQAEDVAVYYCQQSNEVPYTFGQGTKLEIK | 73
hu203 (antibody, V domains shown, 3H10 HC-1/1F5 LC1-4) VH: QVQLVQSGAEVKKPGASVKVSCKASGYTFTDYNMHWVRQAPGQGLEWMGYIYPYNGHTVYNQKFRNRVTMTVDTSSSTAYMELRSLRSDDTAVYYCAKEGLGGYWGQGTLVTVSS VL: DIVLTQSPDSLAVSLGERATINCKASQNIDFDGYAYMNWYQHKPGQPPKVLIYSVFNLESGVPDRFSGSGSGTDFTLTISSLQAEDVAVYYCQQSHEVPYTFGQGTKLEIK | 33
hu8 (antibody, V domains shown, 1B2 HC-1/1F5 LC1-4) VH: QVQLVQSGAEVKKPGASVKVSCKASGYTFTDYNMHWVRQAPGQGLEWMGYIFPYNGVAVYNRKFRSRVTLTIDTSSSTAYMELRSLRSDDTAVYYCAREGLGGYWGQGTLVTVSS VL: DIVLTQSPDSLAVSLGERATINCKASQNIDFDGYAYMNWYQHKPGQPPKVLIYSVFNLESGVPDRFSGSGSGTDFTLTISSLQAEDVAVYYCQQSHEVPYTFGQGTKLEIK | 72
hu115 (antibody, V domains shown, 2B8 HC1-1/3E5 LC-1) VH: QVQLVQSGAEVKKPGASVKVSCKASGYTFTDYNMHWVRQAPGQGLEWMGNIYPYNGGTVYNQKFNNRVTLTVDTSSSTAYMELSRLRSDDTAVYYCAREGLGGYWGQGTLVTVSS VL: DIVLTQSPDSLAVSLGERATINCKASQNIDYDGYTYLNWYQQKPGQPPKVLIYSIFNLESGVPDRFSGSGSGTDFTLTISSLQAEDVAVYYCQQSNEVPYTFGQGTKLEIK | 98
hu125 (antibody, V domains shown, 2B8 HC1-2/1F5 LC1-4) VH: QVQLVQSGAEVKKPGASVKVSCKASGYTFTDYNMHWVRQAPGQGLEWMGNIYPYNGGTVYNQKFNNRVTLTVDTSSSTAYMELRSLRSDDTAVYYCAREGLGGYWGQGTLVTVSS VL: DIVLTQSPDSLAVSLGERATINCKASQNIDFDGYAYMNWYQHKPGQPPKVLIYSVFNLESGVPDRFSGSGSGTDFTLTISSLQAEDVAVYYCQQSHEVPYTFGQGTKLEIK | 34
hu102 (antibody, V domains shown, 2A2 HC-1/3E5 LC-1) VH: QVQLVQSGAEVKKPGASVKVSCKASGYTFTDYNMHWVRQAPGQRLEWMGYVYPYNGGSAYNQKFKSRVTLTVDTSSSTAYMELSSLRSEDTAVYYCAREGLGGYWGQGTLVTVSS VL: DIVLTQSPDSLAVSLGERATINCKASQNIDYDGYTYLNWYQQKPGQPPKVLIYSIFNLESGVPDRFSGSGSGTDFTLTISSLQAEDVAVYYCQQSNEVPYTFGQGTKLEIK | 94
hu207 (antibody, V domains shown, 3H10 HC-1/3H10 LC2-1) VH: QVQLVQSGAEVKKPGASVKVSCKASGYTFTDYNMHWVRQAPGQGLEWMGYIYPYNGHTVYNQKFRNRVTMTVDTSSSTAYMELRSLRSDDTAVYYCAKEGLGGYWGQGTLVTVSS VL: DIVLTQSPDSLAVSLGERATINCKASQNIDYGGYSYMNWYQQKPGQPPKVLIYSVFNLESGVPDRFSGSGSGTDFTLTISSLQAEDVAVYYCQQSNEAPYTFGQGTKLEIK | 56
hu60 (antibody, V domains shown, 1F5 HC-3/1F5 LC1-4) VH: QVQLVQSGAEVKKPGASVKVSCKASGYTFTDFNMHWVRQAPGQGLEWMGYIYPYNGDVVYNQNFTNRVTLTVDTSSSTAYMELRSLRSDDTAVYYCAREGLGGYWGQGTLVTVSS VL: DIVLTQSPDSLAVSLGERATINCKASQNIDFDGYAYMNWYQHKPGQPPKVLIYSVFNLESGVPDRFSGSGSGTDFTLTISSLQAEDVAVYYCQQSHEVPYTFGQGTKLEIK | 11
hu116 (antibody, V domains shown, 2B8 HC1-1/3H10 LC2-1) VH: QVQLVQSGAEVKKPGASVKVSCKASGYTFTDYNMHWVRQAPGQGLEWMGNIYPYNGGTVYNQKFNNRVTLTVDTSSSTAYMELSRLRSDDTAVYYCAREGLGGYWGQGTLVTVSS VL: DIVLTQSPDSLAVSLGERATINCKASQNIDYGGYSYMNWYQQKPGQPPKVLIYSVFNLESGVPDRFSGSGSGTDFTLTISSLQAEDVAVYYCQQSNEAPYTFGQGTKLEIK | 88
hu180 (antibody, V domains shown, 3E5 HC-3/3E5 LC-1) VH: QVQLVQSGAEVKKPGASVKVSCKASGYTFTDYNMHWVRQAPGQGLEWMGYISPYNGGTAYNQKFKFRVTLTVDTSSSTAYMELSRLRSDDTVVYYCAREGLGGYWGQGTLVTVSS VL: DIVLTQSPDSLAVSLGERATINCKASQNIDYDGYTYLNWYQQKPGQPPKVLIYSIFNLESGVPDRFSGSGSGTDFTLTISSLQAEDVAVYYCQQSNEVPYTFGQGTKLEIK | 87
hu138 (antibody, V domains shown, 2B8 HC1-3/1F5 LC1-4) VH: QVQLVQSGAEVKKPGASVKVSCKASGYTFTDYNMHWVRQAPGQGLEWMGNIYPYNAGTVYNQKFNNRVTLTVDTSSSTAYMELSRLRSDDTAVYYCAREGLGGYWGQGTLVTVSS VL: DIVLTQSPDSLAVSLGERATINCKASQNIDFDGYAYMNWYQHKPGQPPKVLIYSVFNLESGVPDRFSGSGSGTDFTLTISSLQAEDVAVYYCQQSHEVPYTFGQGTKLEIK | 102
hu141 (antibody, V domains shown, 2B8 HC1-3/3E5 LC-1) VH: QVQLVQSGAEVKKPGASVKVSCKASGYTFTDYNMHWVRQAPGQGLEWMGNIYPYNAGTVYNQKFNNRVTLTVDTSSSTAYMELSRLRSDDTAVYYCAREGLGGYWGQGTLVTVSS VL: DIVLTQSPDSLAVSLGERATINCKASQNIDYDGYTYLNWYQQKPGQPPKVLIYSIFNLESGVPDRFSGSGSGTDFTLTISSLQAEDVAVYYCQQSNEVPYTFGQGTKLEIK | 86
hu11 (antibody, V domains shown, 1B2 HC-1/3E5 LC-1) VH: QVQLVQSGAEVKKPGASVKVSCKASGYTFTDYNMHWVRQAPGQGLEWMGYIFPYNGVAVYNRKFRSRVTLTIDTSSSTAYMELRSLRSDDTAVYYCAREGLGGYWGQGTLVTVSS VL: DIVLTQSPDSLAVSLGERATINCKASQNIDYDGYTYLNWYQQKPGQPPKVLIYSIFNLESGVPDRFSGSGSGTDFTLTISSLQAEDVAVYYCQQSNEVPYTFGQGTKLEIK | 49
hu112 (antibody, V domains shown, 2B8 HC1-1/1F5 LC1-4) VH: QVQLVQSGAEVKKPGASVKVSCKASGYTFTDYNMHWVRQAPGQGLEWMGNIYPYNGGTVYNQKFNNRVTLTVDTSSSTAYMELSRLRSDDTAVYYCAREGLGGYWGQGTLVTVSS VL: DIVLTQSPDSLAVSLGERATINCKASQNIDFDGYAYMNWYQHKPGQPPKVLIYSVFNLESGVPDRFSGSGSGTDFTLTISSLQAEDVAVYYCQQSHEVPYTFGQGTKLEIK | 14
hu142 (antibody, V domains shown, 2B8 HC1-3/3H10 LC2-1) VH: QVQLVQSGAEVKKPGASVKVSCKASGYTFTDYNMHWVRQAPGQGLEWMGNIYPYNAGTVYNQKFNNRVTLTVDTSSSTAYMELSRLRSDDTAVYYCAREGLGGYWGQGTLVTVSS VL: DIVLTQSPDSLAVSLGERATINCKASQNIDYGGYSYMNWYQQKPGQPPKVLIYSVFNLESGVPDRFSGSGSGTDFTLTISSLQAEDVAVYYCQQSNEAPYTFGQGTKLEIK | 84
hu12 (antibody, V domains shown, 1B2 HC-1/3H10 LC2-1) VH: QVQLVQSGAEVKKPGASVKVSCKASGYTFTDYNMHWVRQAPGQGLEWMGYIFPYNGVAVYNRKFRSRVTLTIDTSSSTAYMELRSLRSDDTAVYYCAREGLGGYWGQGTLVTVSS VL: DIVLTQSPDSLAVSLGERATINCKASQNIDYGGYSYMNWYQQKPGQPPKVLIYSVFNLESGVPDRFSGSGSGTDFTLTISSLQAEDVAVYYCQQSNEAPYTFGQGTKLEIK | 73
hu216 (antibody, V domains shown, 3H10 HC-2/1F5 LC1-4) VH: QVQLVQSGAEVKKPGASVKVSCKASGYTFTDYNMHWVRQAPGQGLEWMGYIYPYNGHTVYNQKFRNRVTLTVDTSSSTAYMELRSLRSDDTAVYYCAREGLGGYWGQGTLVTVSS VL: DIVLTQSPDSLAVSLGERATINCKASQNIDFDGYAYMNWYQHKPGQPPKVLIYSVFNLESGVPDRFSGSGSGTDFTLTISSLQAEDVAVYYCQQSHEVPYTFGQGTKLEIK | 58

Source: patent US20260125454A1 (SHANGHAI JUNSHI BIOSCIENCES, published 2026)
